We go through 30 molecules from patent US20250304927A1, “PRO-PEPTIDE VARIANTS FOR MODULATING ACTIVITY OF TRANSGLUTAMINASES” (CURIE CO. INC., priority 2022, published 2025).

In experiment [1] the target is T1, thermostable variant of Streptomyces mobaraensis transglutaminase (Streptomyces mobaraensis, UniProt P81453 79-407).
T1 sequence: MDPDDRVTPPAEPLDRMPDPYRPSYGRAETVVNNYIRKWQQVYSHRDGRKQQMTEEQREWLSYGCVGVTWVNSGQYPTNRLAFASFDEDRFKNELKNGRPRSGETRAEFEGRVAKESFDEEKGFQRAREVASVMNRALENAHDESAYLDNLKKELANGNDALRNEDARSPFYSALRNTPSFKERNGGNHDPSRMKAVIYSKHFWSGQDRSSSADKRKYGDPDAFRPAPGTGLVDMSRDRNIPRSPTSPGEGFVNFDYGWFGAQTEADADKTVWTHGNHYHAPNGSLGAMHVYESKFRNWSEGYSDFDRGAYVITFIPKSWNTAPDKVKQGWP
The experiment can be described thus: cell-based or functional assay.

For experiment [2], the target named is T1, thermostable variant of Streptomyces …. Kind of experiment: cell-based or functional assay. The source holds these as a separate data set.

Consider MDNGAGEETKS [pro-peptide truncation variant ΔY12-P46], for which, in experiment [1], the “Improvement in pH responsiveness of inhibitory peptide relative to WT” value was over 1.2 fold. In addition, in experiment [2], the “Reduction in binding affinity of inhibitory peptide relative to WT” value is over 1.2 fold.

Take MDNGAGEETKSYAETYR [pro-peptide truncation variant ΔL18-P46]: the “Improvement in pH responsiveness of inhibitory peptide relative to WT” value in experiment [1] was over 5 fold. For the same molecule, in experiment [2], the “Reduction in binding affinity of inhibitory peptide relative to WT” value is over 1.2 fold.

Consider MDNGAGEETKSYAETYRLTADDVAN [pro-peptide truncation variant ΔI26-P46], for which the “Improvement in pH responsiveness of inhibitory peptide relative to WT” value in experiment [1] is over 1.2 fold. The “Reduction in binding affinity of inhibitory peptide relative to WT” value in experiment [2] is over 1.2 fold.

In the case of MDNGAGEGTKSYAETYRLTADDVANINALNESAPAASSAGPSFRAP [pro-peptide variant E8G], the “Improvement in pH responsiveness of inhibitory peptide relative to WT” value in experiment [1] was over 1.2 fold. Further, the “Reduction in binding affinity of inhibitory peptide relative to WT” value in experiment [2] was over 1.2 fold.

In the case of MDNGAGGETKSYAETYRLTADDVANINALNESAPAASSAGPSFRAP [pro-peptide variant E7G], in experiment [1], the “Improvement in pH responsiveness of inhibitory peptide relative to WT” value is over 5 fold. In experiment [2], the “Reduction in binding affinity of inhibitory peptide relative to WT” value is over 1.2 fold.

Turning to MDNGAGEETKLYAETYRLTADDVANINALNESAPAASSAGPSFRAP [pro-peptide variant S11L], in experiment [1], the “Improvement in pH responsiveness of inhibitory peptide relative to WT” value was over 1.2 fold. The “Reduction in binding affinity of inhibitory peptide relative to WT” value in experiment [2] was over 1.2 fold.

For the molecule MDNGAGEETKSNAETYRLTADDVANINALNESAPAASSAGPSFRAP [pro-peptide variant Y12N], the “Improvement in pH responsiveness of inhibitory peptide relative to WT” value in experiment [1] is over 1.2 fold. In experiment [2], the “Reduction in binding affinity of inhibitory peptide relative to WT” value is over 1.2 fold.

For MDNGAGEETKSYAETYRLTALDVANINALNESAPAASSAGPSFRAP [pro-peptide variant D21L], the “Improvement in pH responsiveness of inhibitory peptide relative to WT” value in experiment [1] is over 1.2 fold. Besides, in experiment [2], the “Reduction in binding affinity of inhibitory peptide relative to WT” value was over 5 fold.

In the case of MDNGAGEETKSVAETYRLTADDVANINALNESAPAASSAGPSFRAP [pro-peptide variant Y12V], the “Improvement in pH responsiveness of inhibitory peptide relative to WT” value in experiment [1] is over 1.2 fold. Further, the “Reduction in binding affinity of inhibitory peptide relative to WT” value in experiment [2] is over 1.2 fold.

Turning to MDNGAGEETKDYAETYRLTADDVANINALNESAPAASSAGPSFRAP [pro-peptide variant S11D], the “Improvement in pH responsiveness of inhibitory peptide relative to WT” value in experiment [1] is over 1.2 fold. For the same molecule, in experiment [2], the “Reduction in binding affinity of inhibitory peptide relative to WT” value is over 1.2 fold.

For MDNGAGEETKSYAETYRLTADDVANYNALNESAPAASSAGPSFRAP [pro-peptide variant I26Y], the “Improvement in pH responsiveness of inhibitory peptide relative to WT” value in experiment [1] is over 1.2 fold. In experiment [2], the “Reduction in binding affinity of inhibitory peptide relative to WT” value is over 1.2 fold.

In the case of MDNGAGEETKSYAETYRWTADDVANINALNESAPAASSAGPSFRAP [pro-peptide variant L18W], the “Improvement in pH responsiveness of inhibitory peptide relative to WT” value in experiment [1] is over 1.2 fold. In experiment [2], the “Reduction in binding affinity of inhibitory peptide relative to WT” value is over 1.2 fold.

Take MDNGAGEETKSYAVTYRLTADDVANINALNESAPAASSAGPSFRAP [pro-peptide variant E14V]: the “Improvement in pH responsiveness of inhibitory peptide relative to WT” value in experiment [1] is over 1.2 fold. In addition, in experiment [2], the “Reduction in binding affinity of inhibitory peptide relative to WT” value is over 1.2 fold.

Consider MDNGAGEETKSGAETYRLTADDVANINALNESAPAASSAGPSFRAP [pro-peptide variant Y12G], for which the “Improvement in pH responsiveness of inhibitory peptide relative to WT” value in experiment [1] is over 1.2 fold. Besides, in experiment [2], the “Reduction in binding affinity of inhibitory peptide relative to WT” value is over 1.2 fold.

On to MDNGAGEETKSYAETYRLTADGVANINALNESAPAASSAGPSFRAP [pro-peptide variant D22G], for which the “Improvement in pH responsiveness of inhibitory peptide relative to WT” value in experiment [1] is over 1.2 fold. Further, in experiment [2], the “Reduction in binding affinity of inhibitory peptide relative to WT” value was over 1.2 fold.

MDNGAGEETKKYAETYRLTADDVANINALNESAPAASSAGPSFRAP [pro-peptide variant S11K]: in experiment [1], the “Improvement in pH responsiveness of inhibitory peptide relative to WT” value is over 1.2 fold. In addition, in experiment [2], the “Reduction in binding affinity of inhibitory peptide relative to WT” value is over 1.2 fold.

With MDNGAGEEQKSYAETYRLTADDVANINALNESAPAASSAGPSFRAP [pro-peptide variant T9Q], in experiment [1], the “Improvement in pH responsiveness of inhibitory peptide relative to WT” value was over 1.2 fold. Also, the “Reduction in binding affinity of inhibitory peptide relative to WT” value in experiment [2] was over 1.2 fold.

MDNGAGEETKSYAETYRKTADDVANINALNESAPAASSAGPSFRAP [pro-peptide variant L18K]: the “Improvement in pH responsiveness of inhibitory peptide relative to WT” value in experiment [1] is over 1.2 fold. For the same molecule, the “Reduction in binding affinity of inhibitory peptide relative to WT” value in experiment [2] was over 1.2 fold.

Take MDNGAGEETKSYAETYRLTADDVHNINALNESAPAASSAGPSFRAP [pro-peptide variant A24H]: in experiment [1], the “Improvement in pH responsiveness of inhibitory peptide relative to WT” value is over 5 fold. Moreover, the “Reduction in binding affinity of inhibitory peptide relative to WT” value in experiment [2] is over 1.2 fold.

As to MDNGAGEYTKSYAETYRLTADDVANINALNESAPAASSAGPSFRAP [pro-peptide variant E8Y], the “Improvement in pH responsiveness of inhibitory peptide relative to WT” value in experiment [1] was over 1.2 fold. In addition, the “Reduction in binding affinity of inhibitory peptide relative to WT” value in experiment [2] was over 1.2 fold.

On to MDNGAGEETKSYAGTYRLTADDVANINALNESAPAASSAGPSFRAP [pro-peptide variant E14G], for which the “Improvement in pH responsiveness of inhibitory peptide relative to WT” value in experiment [1] was over 5 fold. The “Reduction in binding affinity of inhibitory peptide relative to WT” value in experiment [2] was over 1.2 fold.

MDNGAGEETRSYAETYRLTADDVANINALNESAPAASSAGPSFRAP [pro-peptide variant K10R]: in experiment [1], the “Improvement in pH responsiveness of inhibitory peptide relative to WT” value is over 1.2 fold. In addition, in experiment [2], the “Reduction in binding affinity of inhibitory peptide relative to WT” value is over 1.2 fold.

As to MDNGAGEETKSYANTYRLTADDVANINALNESAPAASSAGPSFRAP [pro-peptide variant E14N], in experiment [1], the “Improvement in pH responsiveness of inhibitory peptide relative to WT” value was over 5 fold. Further, the “Reduction in binding affinity of inhibitory peptide relative to WT” value in experiment [2] is over 1.2 fold.

On to MDNGAGEETGSYAETYRLTADDVANINALNESAPAASSAGPSFRAP [pro-peptide variant K10G], for which the “Improvement in pH responsiveness of inhibitory peptide relative to WT” value in experiment [1] was over 5 fold. Moreover, the “Reduction in binding affinity of inhibitory peptide relative to WT” value in experiment [2] was over 1.2 fold.

For MDNGAGEETKSYATTYRLTADDVANINALNESAPAASSAGPSFRAP [pro-peptide variant E14T], the “Improvement in pH responsiveness of inhibitory peptide relative to WT” value in experiment [1] is over 1.2 fold. Also, the “Reduction in binding affinity of inhibitory peptide relative to WT” value in experiment [2] is over 1.2 fold.

Turning to MDNGAGEETKSYARTYRLTADDVANINALNESAPAASSAGPSFRAP [pro-peptide variant E14R], the “Improvement in pH responsiveness of inhibitory peptide relative to WT” value in experiment [1] was over 1.2 fold. Besides, the “Reduction in binding affinity of inhibitory peptide relative to WT” value in experiment [2] is over 1.2 fold.

Consider MDNGAGEETDSYAETYRLTADDVANINALNESAPAASSAGPSFRAP [pro-peptide variant K10D], for which, in experiment [1], the “Improvement in pH responsiveness of inhibitory peptide relative to WT” value was over 1.2 fold. The “Reduction in binding affinity of inhibitory peptide relative to WT” value in experiment [2] is over 1.2 fold.

MDNGAGEETKSTAETYRLTADDVANINALNESAPAASSAGPSFRAP [pro-peptide variant Y12T]: the “Improvement in pH responsiveness of inhibitory peptide relative to WT” value in experiment [1] is over 1.2 fold. In experiment [2], the “Reduction in binding affinity of inhibitory peptide relative to WT” value is over 1.2 fold.

As to MDNGAGEETKSLAETYRLTADDVANINALNESAPAASSAGPSFRAP [pro-peptide variant Y12L], the “Improvement in pH responsiveness of inhibitory peptide relative to WT” value in experiment [1] was over 1.2 fold. For the same molecule, the “Reduction in binding affinity of inhibitory peptide relative to WT” value in experiment [2] is over 1.2 fold.

As for MDNGAGEETKSYAETYRLTARDVANINALNESAPAASSAGPSFRAP [pro-peptide variant D21R], the “Improvement in pH responsiveness of inhibitory peptide relative to WT” value in experiment [1] is over 1.2 fold. The “Reduction in binding affinity of inhibitory peptide relative to WT” value in experiment [2] was over 5 fold.
